Article PMC3254808 (Biochemistry, 2011)

Legend:
[1] = substrate: OC(CS)C(O)CS; experiment: oxygen electrode; assay type: biochemical, Saccharomyces cerevisiae; conditions: O2 as co-substrate, 50 mM Tris/HCl, 0.3 mM EDTA, pH 7.5, 25 °C
[2] = biological target: the molecule itself; experiment: cross-linking

B1: Erv2p (Saccharomyces cerevisiae S288C) (protein)
chain: MKQIVKRSHAIRIVAALGIIGLWMFFSSNELSIATPGLIKAKSGIDEVQGAAAEKNDARLKEIEKQTIMPLMGDDKVKKEVGRASWKYFHTLLARFPDEPTPEEREKLHTFIGLYAELYPCGECSYHFVKLIEKYPVQTSSRTAAAMWGCHIHNKVNEYLKKDIYDCATILEDYDCGCSDSDGKRVSLEKEAKQHG
In the case of B1, the Km [1] is reported as 7 ± 1 mM and the kcat [1] is reported as 3.83 ± 0.13 s⁻¹.

B2: Erv2p, wild type (enzyme, yeast, UniProt Q12284 1-196, looked up)
chain: PGLIKAKSGIDEVQGAAAEKNDARLKEIEKQTIMPLMGDDKVKKEVGRASWKYFHTLLARFPDEPTPEEREKLHTFIGLYAELYPCGECSYHFVKLIEKYPVQTSSRTAAAMWGCHIHNKVNEYLKKDIYDCATILEDYDCGCSDSDGKRVSLEKEAKQHG
In the case of B2, the “stoichiometry N” value [2] is reported as 2.
